Assay: yeast display, Sf9 membrane polyspecificity reagent, FACS + sequencing; frameworks hold sequencing errors
Outline: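 A synthetic nanobody library was expressed on Saccharomyces cerevisiae BJ5465 by galactose induction for 36–48 hours. The library was stained for 1 hour at 4 °C with 10% biotinylated, detergent-solubilized Sf9 membrane reagent and enriched with streptavidin microbeads before FACS. Low and high (top ~1%) gates were set on anti-HA fluorescence for expression and streptavidin fluorescence for reagent binding, and each polyreactivity label reflects the gate of origin.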

| Sequence | polyreactivity (PSR sort gate) |
| --- | --- |
| QVQLVESGRGLDQAGGSHRISCAGSARIFTIYAMGCYRQAPGKERELVAAISKSGGRTYYADSVKGRFTISRDNAKNTVYVQMNSLKPEDTAVYYCAARWRSWRYKYDYWGQGTQVTVSS | high polyreactivity |
| QVQLVESGRGLFQAGGSLRISCAPSGSNFGYYTMGWYRQAPGKDRELVAAITWSGGSTYYADSVKGRFTISRDNAKNTDYLQMYSLKPEDTAVYYCAADGFYYRNWGRIRYYYWGQGTQVTVSS | low polyreactivity |
| QVQLVESGRGLVHAGGSLRISCAASGSTYTWNVMGWYRQAPGKERELVADINSGADTSYADSVKGRFTISRDNAKNTVYLQMNSLKPEDTGVYYCAADIYVYDYWGQGTQVTVSS | low polyreactivity |
| QVQLVESGRGLVHAGGSLRLSCAASGFILGVNERGWYRQAPGKERELVAAISQGDGSKYYADSVKGRFTISRDNANNTVYLQMNSLKPEDTAVYYCNAELYRDLRGYDHWGQGTQVTVSS | low polyreactivity |
| QVQLVESGRGLVLAGGSLRLSCAASGFIFSYNAMGSYRLAPGKERELVAAISSSGGTTYYADSVKGRFTISRDNAKNTVYLQMNSLKPEDTAVYYCAADGRTYHHHDCGWYRYDYWGQGSQVTVSS | low polyreactivity |
| QVQLVESGRGLVQAGCSLRLSCAASGRTFSLYAMGWYRQAPGKERELVAAITLSAGSTYYADSVKGRFTISRDNEKNTVYLQMNSLKPEDTAVYYCNTRTLVAMGYWGQGTQVTVSS | high polyreactivity |
| QVQLVESGRGLVQAGGILRLFCAASGSTFVSYAIAWYRQAPGKERELVAAISRSGGSTYYADSVKGRFTISRDNAKNTVYLQMNSLKTEDTAVYYCAAVRYWSDYDYWGQGTKVTVSS | high polyreactivity |
| QVQLVESGRGLVQAGGRQRLSSAASGTTFGRYAMGWTRQAPGKQRELVAAISESDGSTYYADSVKGRFTISRDNAKNTVYLQMNSLTPEDTSVYYCAAEWTHYWWYQYDYWGQGTQVTVSS | high polyreactivity |
| QVQLVESGRGLVQAGGSLRISCAASGLILYTYAMGWYRQAPGKERELVAAITKSGGRTYYADSVKGRFTISRDNAKNTVYLQMNSLKPEDTAVYDCAARPYSRPYSFGFYYWGQGTQVTVSS | high polyreactivity |
| QVQLVESGRGLVQAGGSLRISCAASGRIFFYYTMGWYRQAPGRERELVAAINSTGATNYADSVKGRFTISRDNAKNTVYLQMNSLKPEDTAVYYCNAGTRYIFLYPPFLGAAFDYWGQGTQVTVSS | low polyreactivity |
| QVQLVESGRGLVQAGGSLRLICAASGLTFHRYAMGWYRQAPGKERELVAALTWRGVSTYYADSVKGRFTISRDNAKNTVYLQMNSLKPEDTAVYYCAADDYFYDPYEYWGQGTIVTVSS | high polyreactivity |
| QVQLVESGRGLVQAGGSLRLRGAASGSTSWSNAMGWYRQAPGKERELVAAITTGASTYYADSVKGRFTSSRDNAKNTVYLQMNSLKPEDTAVYYCAADPWVLWSYYYWGQGTQVTVSS | low polyreactivity |
| QVQLVESGRGLVQAGGSLRLSCAASASTFYYNAMGWYRQAPGKEREFVAGITSSGAGTYYADSVKGRFTISRDNAKKTVYLQMNSLKPEDTAVYYCAAVYRWEGRTYRYVYWGQGTQVTVSS | high polyreactivity |
| QVQLVESGRGLVQAGGSLRLSCAASGFIFRTYVMGWSRQATGKERELVAAITSSGGSTYYADSVKGRFTISRDTAKNTVYLQMNSLIPEDTAVYYCNAYPVYGRYTHYGYGHWGQGTQVTVSS | high polyreactivity |
| QVQLVESGRGLVQAGGSLRLSCAASGFTFGYYAMGWYRQAPGKERELVASISRSGGSTNYADSVKGRFTISRDNAKNTVYLQMNSLKPEDTAVYYCNKRSYWYQGRFDYWGQGTQVTVSS | high polyreactivity |
| QVQLVESGRGLVQAGGSLRLSCAASGFTFRRYAMVWYRQAPGKERELVAAITRNGGSTYYADSVKGRFTISRDNAKNTVYFQMNRLKPEDTEVYYCNAVLYTPVYDGFDSWGQGTQVTVSS | high polyreactivity |
| QVQLVESGRGLVQAGGSLRLSCAASGFTFYIYAMGWYRQAPGKERELVAAINFGGGGTYYADSVKGRFTISRDNAKNTVYLQMNSLKPEDTAVYYCAADYWYDYYSTEYDYWGQGTQVTVSS | low polyreactivity |
| QVQLVESGRGLVQAGGSLRLSCAASGFTIDYYAIAWYRQAPGKERELVADISSDGSTYADSVKGRFTISRDNAKNTVYLQMNSLKPEDTAVYYCNAYLSKYFRYDYWGQGTQVTVSS | high polyreactivity |
| QVQLVESGRGLVQAGGSLRLSCAASGIIFGSYAMGWYRQAPGKEMELVAAISRGTSTYYADSVKGRFTISRDNAKITVYLQMNSLNPEDTAVYYCAATRQEYGPHSRFVYVNYYYWGQGTQVTVSS | low polyreactivity |
| QVQLVESGRGLVQAGGSLRLSCAASGITFRYYAMGWYRPAPGKERELVAAITRGGRTNYADSVKGRFTISRDNAKNTVYLQMNSLKPEDTAVYYCATGRDSNFGNSYYYWGQGTQVTVSS | high polyreactivity |
| QVQLVESGRGLVQAGGSLRLSCAASGITFTGYAMGWYRQAPGKERELVAASTSGGSTTYADSVKGRFTISRDNAKNTVYLQMNSQKPEDTAVYYCGARTADYSTAEYDYWGQGTQLTVSS | low polyreactivity |
| QVQLVESGRGLVQAGGSLRLSCAASGRIFKTYAMGWYRQAPGKERELVAAITTSGDSTYYADSVKGRFTISRDNAKNTVYLQMNSLKPEDTAVYYCAARPRVRSSYRYYYWGQGTQLTVSS | high polyreactivity |

| Sequence | polyreactivity (PSR sort gate) |
| --- | --- |
| QVQLVESGRGLVQAGGSLRLSCAASGRIFRYYTMGCYRQAPGKERELVASITYRGTSTYYADSVKGRFTISRDNAKNTVYLQMTSLKPEDTAVYYCNKDLFFRSISSKYDYWGQGTQVTVSS | high polyreactivity |
| QVQLVESGRGLVQAGGSLRLSCAASGRIFSGNAMGWYRQAPGKERELVAGITWTGGRTYYAASVKGRFTISRDNAKNTVYLQMNSLKPEDTAVYYCAARYTRWSDLMYYWGQGTQVTVSS | high polyreactivity |
| QVQLVESGRGLVQAGGSLRLSCAASGRIFVAYTMGLYRQAPGKERELVASINRSGGTYYADSVKGRFTISRDNAKNTVYLQMNRLKPEDTAVYYCNAVFRSRSYFSKGDYWGQGTQVTVSS | high polyreactivity |
| QVQLVESGRGLVQAGGSLRLSCAASGRIFYYNDMGWYRQAPGKERELVASITGSGGSTYYADSVKGRFTISRDNAKNTVYLQMNSLKPEDTAVYYCAKREYLYPYYYVAKYDYWGQGTQVTVSS | low polyreactivity |
| QVQLVESGRGLVQAGGSLRLSCAASGRIYRRNAIGWYRQAPGKERELVAAITWSDGSTYYADSVKGRFTISRDNAKNTVYFQMNSLKPEDTAVYYCNKVTRSPSEYDYWGQGTQVTVSS | high polyreactivity |
| QVQLVESGRGLVQAGGSLRLSCAASGRTFAVSTMGWYRKAAGQERELVATISWSGGSTYYADSVKGRFTISRDNAKNTVYLQMNSLKPEDTAVYFCNADFTWGSYERDYWGQGTQGTVSS | high polyreactivity |
| QVQLVESGRGLVQAGGSLRLSCAASGRTFNWYAKGWYRQAPGKERELVAAISSGGSTYYADSVKGRFTISRDNAKNTVYLQMNSLKPEDTAVYYCAAVTPSGAHRSAYHPISDYWGQGTQVTVSS | low polyreactivity |
| QVQLVESGRGLVQAGGSLRLSCAASGRTVWVYTMGWYRQAPGKERELVAAITLSGGSTYYADSVKGRFTISRDNAKNTVYLQMNSLKPEDTAVYYSNARPYYYTYRHSQYYYWGQGTQVTVSS | high polyreactivity |
| QVQLVESGRGLVQAGGSLRLSCAASGSIFNCYDMGWYRQAPGKERELVADIRSAGSTYYADSVKGRFTISRDNAKNTVYLQMNSLKPEDTAVNYCAAEAPVQPFYVFNTGIYELDYWGQGTQVTVSS | low polyreactivity |
| QVQLVESGRGLVQAGGSLRLSCAASGSIFQKYTMGWYRQAPGKERELVAGINTSGANTYYADSVKGRFTISRDNAKNTVYLQMNSLKPEDTAVYYCAAARPWFAYYYWGQGTQVTVSS | high polyreactivity |
| QVQLVESGRGLVQAGGSLRLSCAASGSIFRGNAMGWYRQAPGKERELVAAMTKRGGSTYYADSGKGRFTISRDNAKNTDKFQMNSLKPEDTAVYYFAAKPSYRYYKSYDYWGQGTQVTVSS | high polyreactivity |
| QVQLVESGRGLVQAGGSLRLSCAASGSIFSGNAMGWYRQAPGKERELVAAISRSGGSTYYADSVKGRFTISRDNAKNTVYLQLYSLKPEDTAVYYCAAYRTHGPPRALRFDYWGQGTLVTVSS | high polyreactivity |
| QVQLVESGRGLVQAGGSLRLSCAASGSTFLGNAMGWYREAPGKARELVAAITSAGSTYYADSVKGRFTISRDNAKNTVYLQMNSLKPEDTAVYYCNADSTWGGYGFDDWGQGTQVTVSS | low polyreactivity |
| QVQLVESGRGLVQAGGSLRLSCAASGSTFVYNVMGWYRQAHGKERELVAAIRRRGGSTYADSVKGRFTITRDNAKNTVYLQMNSLNPEVTAVYYCAAGIPRYWYAGHYDYWGQGTKVTVSS | low polyreactivity |
| QVQLVESGRGLVQAGGSLRLSCAASGSTLATYTMGWYRQAPGKERELVPAISFGGSTYYADSVKGRFTISRDNAKNTVYLQMNSLKPEDTAVYYCAVYGDSYWGAYYYSDGYWGQGTQVTVSS | low polyreactivity |
| QVQLVESGRGLVQAGGSLRLSCAASGYTFSNYGMGWYRQAPGKERELVAGIILGGSSTYYADSVKGRFTISRDNAKNTVYLQMNSLKPEDTAVYYCAAYVTGRYDWGQGTQVTVSS | high polyreactivity |
| QVQLVESGRGLVQAGGSLRLSCAATGLTFNQYAMGWYRQAPGKERELVAAITRVGRTYYADSVKGRFTISRDNAKNSVYLQMNSLKPEDTAVYYWGYPDVAERRGSYYWGQGTQVTVSS | high polyreactivity |
| QVQLVESGRGLVQAGGSLRLSCAPSGRISAQYTMGWYRQAPGKERELVAAITWSGTNTYYADSVKGRFTISRDNAKNTVYLQMNSLKPEDTAVYYCATAVYLVIFEYDYWGQGTQVTVSS | low polyreactivity |
| QVQLVESGRGLVQAGGSLRLSCASSGFIFGPYAMGWYRQAPGKERELVAAISRRGGSTYYADSVKGRFTISRDNAKNTVYLQMNSLKPEDTAVYYCATRISQSYYNYGYWGQGTQGTVSS | high polyreactivity |
| QVQLVESGRGLVQAGGSLRLTGAASGRIFGLYAMGWYRHAPGKERELVAAISRRGGTTYYADSVQGRFTISRDNAKNTVDLQMNSLKPEDTAVYYCAAATVYLSWYYWGQGTQVTVSS | high polyreactivity |
| QVQLVESGRGLVQAGGSLSLSCAASGSILYIYAMVWNIQAPGKERELVDSINSGGSTNYADSVKGRFTISRDNAKNTVYLEMNSLIPEDTAVYYCAKSIGNPPQGFKDFDYWGQGTLVTVSS | low polyreactivity |

Reference: the nanobody polyreactivity screen of Harvey et al. (2022)
